From the Human Domainome abundance scans (Beltran et al. 2025)
± gives the uncertainty stated by the source.

Assay: abundance fitness (aPCA) (normalised: wild type 0, dead -1); higher = more abundant; growth selection in yeast, the domain comes from the species named
Conditions: Homo sapiens

Row | Substance | abundance fitness
1 | E3 ubiquitin-protein ligase NEDD4-like Q220T, Q96PU5 | 0.163 ± 0.077
2 | E3 ubiquitin-protein ligase NEDD4-like Q220V, Q96PU5 | -0.242 ± 0.06
3 | E3 ubiquitin-protein ligase NEDD4-like Q220Y, Q96PU5 | -0.692 ± 0.096
4 | E3 ubiquitin-protein ligase NEDD4-like R208A, Q96PU5 | 0.036 ± 0.062
5 | E3 ubiquitin-protein ligase NEDD4-like R208C, Q96PU5 | 0.06 ± 0.062
6 | E3 ubiquitin-protein ligase NEDD4-like R208D, Q96PU5 | 0.067 ± 0.098
7 | E3 ubiquitin-protein ligase NEDD4-like R208E, Q96PU5 | 0.047 ± 0.083
8 | E3 ubiquitin-protein ligase NEDD4-like R208F, Q96PU5 | -0.289 ± 0.06
9 | E3 ubiquitin-protein ligase NEDD4-like R208G, Q96PU5 | -0.191 ± 0.06
10 | E3 ubiquitin-protein ligase NEDD4-like R208I, Q96PU5 | -0.504 ± 0.12
11 | E3 ubiquitin-protein ligase NEDD4-like R208K, Q96PU5 | -0.028 ± 0.079
12 | E3 ubiquitin-protein ligase NEDD4-like R208L, Q96PU5 | -0.128 ± 0.069
13 | E3 ubiquitin-protein ligase NEDD4-like R208M, Q96PU5 | -0.062 ± 0.078
14 | E3 ubiquitin-protein ligase NEDD4-like R208N, Q96PU5 | 0.225 ± 0.11
15 | E3 ubiquitin-protein ligase NEDD4-like R208P, Q96PU5 | -0.908 ± 0.099
16 | E3 ubiquitin-protein ligase NEDD4-like R208Q, Q96PU5 | 0.215 ± 0.09
17 | E3 ubiquitin-protein ligase NEDD4-like R208T, Q96PU5 | -0.005 ± 0.08
18 | E3 ubiquitin-protein ligase NEDD4-like R208W, Q96PU5 | -0.408 ± 0.083
19 | E3 ubiquitin-protein ligase NEDD4-like R208Y, Q96PU5 | -0.23 ± 0.11
20 | E3 ubiquitin-protein ligase NEDD4-like R217A, Q96PU5 | 0 ± 0.064
21 | E3 ubiquitin-protein ligase NEDD4-like R217C, Q96PU5 | -0.105 ± 0.081
22 | E3 ubiquitin-protein ligase NEDD4-like R217D, Q96PU5 | -0.042 ± 0.078
23 | E3 ubiquitin-protein ligase NEDD4-like R217E, Q96PU5 | -0.153 ± 0.085
24 | E3 ubiquitin-protein ligase NEDD4-like R217F, Q96PU5 | -0.011 ± 0.088

Row | Substance | abundance fitness
25 | E3 ubiquitin-protein ligase NEDD4-like R217G, Q96PU5 | -0.005 ± 0.054
26 | E3 ubiquitin-protein ligase NEDD4-like R217H, Q96PU5 | -1 ± 0.062
27 | E3 ubiquitin-protein ligase NEDD4-like R217I, Q96PU5 | -0.267 ± 0.084
28 | E3 ubiquitin-protein ligase NEDD4-like R217K, Q96PU5 | 0.087 ± 0.091
29 | E3 ubiquitin-protein ligase NEDD4-like R217L, Q96PU5 | -0.208 ± 0.06
30 | E3 ubiquitin-protein ligase NEDD4-like R217M, Q96PU5 | -0.239 ± 0.07
31 | E3 ubiquitin-protein ligase NEDD4-like R217N, Q96PU5 | 0.051 ± 0.089
32 | E3 ubiquitin-protein ligase NEDD4-like R217P, Q96PU5 | -0.267 ± 0.085
33 | E3 ubiquitin-protein ligase NEDD4-like R217Q, Q96PU5 | -0.016 ± 0.067
34 | E3 ubiquitin-protein ligase NEDD4-like R217T, Q96PU5 | -0.069 ± 0.081
35 | E3 ubiquitin-protein ligase NEDD4-like R217Y, Q96PU5 | -0.179 ± 0.084
36 | E3 ubiquitin-protein ligase NEDD4-like R223A, Q96PU5 | -0.175 ± 0.066
37 | E3 ubiquitin-protein ligase NEDD4-like R223C, Q96PU5 | -0.552 ± 0.09
38 | E3 ubiquitin-protein ligase NEDD4-like R223D, Q96PU5 | -0.481 ± 0.098
39 | E3 ubiquitin-protein ligase NEDD4-like R223E, Q96PU5 | -0.378 ± 0.087
40 | E3 ubiquitin-protein ligase NEDD4-like R223F, Q96PU5 | -0.461 ± 0.12
41 | E3 ubiquitin-protein ligase NEDD4-like R223G, Q96PU5 | -0.696 ± 0.068
42 | E3 ubiquitin-protein ligase NEDD4-like R223H, Q96PU5 | -0.18 ± 0.13
43 | E3 ubiquitin-protein ligase NEDD4-like R223K, Q96PU5 | 0.013 ± 0.1
44 | E3 ubiquitin-protein ligase NEDD4-like R223L, Q96PU5 | -0.206 ± 0.053
45 | E3 ubiquitin-protein ligase NEDD4-like R223M, Q96PU5 | -0.28 ± 0.067
46 | E3 ubiquitin-protein ligase NEDD4-like R223N, Q96PU5 | -0.082 ± 0.088
47 | E3 ubiquitin-protein ligase NEDD4-like R223P, Q96PU5 | -0.145 ± 0.11
48 | E3 ubiquitin-protein ligase NEDD4-like R223Q, Q96PU5 | -0.153 ± 0.082

Row | Substance | abundance fitness
49 | E3 ubiquitin-protein ligase NEDD4-like R223S, Q96PU5 | -0.154 ± 0.061
50 | E3 ubiquitin-protein ligase NEDD4-like R223T, Q96PU5 | -0.393 ± 0.094
51 | E3 ubiquitin-protein ligase NEDD4-like R223V, Q96PU5 | -0.249 ± 0.064
52 | E3 ubiquitin-protein ligase NEDD4-like R223Y, Q96PU5 | -0.41 ± 0.1
53 | E3 ubiquitin-protein ligase NEDD4-like S184A, Q96PU5 | -0.461 ± 0.096
54 | E3 ubiquitin-protein ligase NEDD4-like S184C, Q96PU5 | -0.457 ± 0.1
55 | E3 ubiquitin-protein ligase NEDD4-like S184E, Q96PU5 | -0.507 ± 0.49
56 | E3 ubiquitin-protein ligase NEDD4-like S184F, Q96PU5 | 0.13 ± 0.084
57 | E3 ubiquitin-protein ligase NEDD4-like S184G, Q96PU5 | -0.476 ± 0.11
58 | E3 ubiquitin-protein ligase NEDD4-like S184H, Q96PU5 | -0.437 ± 0.15
59 | E3 ubiquitin-protein ligase NEDD4-like S184L, Q96PU5 | -0.599 ± 0.14
60 | E3 ubiquitin-protein ligase NEDD4-like S184M, Q96PU5 | 0.884 ± 0.2
61 | E3 ubiquitin-protein ligase NEDD4-like S184N, Q96PU5 | -0.554 ± 0.4
62 | E3 ubiquitin-protein ligase NEDD4-like S184P, Q96PU5 | -0.682 ± 0.26
63 | E3 ubiquitin-protein ligase NEDD4-like S184R, Q96PU5 | -1.23 ± 0.22
64 | E3 ubiquitin-protein ligase NEDD4-like S184V, Q96PU5 | -0.505 ± 0.13
65 | E3 ubiquitin-protein ligase NEDD4-like S184W, Q96PU5 | -1.33 ± 0.15
66 | E3 ubiquitin-protein ligase NEDD4-like S184Y, Q96PU5 | -0.099 ± 0.12
67 | E3 ubiquitin-protein ligase NEDD4-like S225A, Q96PU5 | -0.068 ± 0.073
68 | E3 ubiquitin-protein ligase NEDD4-like S225C, Q96PU5 | -0.29 ± 0.099
69 | E3 ubiquitin-protein ligase NEDD4-like S225D, Q96PU5 | -0.006 ± 0.065
70 | E3 ubiquitin-protein ligase NEDD4-like S225E, Q96PU5 | 0.041 ± 0.081
71 | E3 ubiquitin-protein ligase NEDD4-like S225F, Q96PU5 | -0.267 ± 0.081
72 | E3 ubiquitin-protein ligase NEDD4-like S225G, Q96PU5 | -0.072 ± 0.068

Row | Substance | abundance fitness
73 | E3 ubiquitin-protein ligase NEDD4-like S225H, Q96PU5 | -0.264 ± 0.14
74 | E3 ubiquitin-protein ligase NEDD4-like S225I, Q96PU5 | -0.038 ± 0.1
75 | E3 ubiquitin-protein ligase NEDD4-like S225K, Q96PU5 | 0.019 ± 0.095
76 | E3 ubiquitin-protein ligase NEDD4-like S225L, Q96PU5 | -0.095 ± 0.056
77 | E3 ubiquitin-protein ligase NEDD4-like S225M, Q96PU5 | -0.136 ± 0.092
78 | E3 ubiquitin-protein ligase NEDD4-like S225P, Q96PU5 | 0.018 ± 0.083
79 | E3 ubiquitin-protein ligase NEDD4-like S225Q, Q96PU5 | 0.048 ± 0.063
80 | E3 ubiquitin-protein ligase NEDD4-like S225R, Q96PU5 | -0.024 ± 0.064
81 | E3 ubiquitin-protein ligase NEDD4-like S225T, Q96PU5 | -0.066 ± 0.079
82 | E3 ubiquitin-protein ligase NEDD4-like S225V, Q96PU5 | -0.018 ± 0.076
83 | E3 ubiquitin-protein ligase NEDD4-like S225W, Q96PU5 | -0.312 ± 0.068
84 | E3 ubiquitin-protein ligase NEDD4-like S225Y, Q96PU5 | -0.395 ± 0.12
85 | E3 ubiquitin-protein ligase NEDD4-like S230A, Q96PU5 | -0.024 ± 0.058
86 | E3 ubiquitin-protein ligase NEDD4-like S230C, Q96PU5 | -0.067 ± 0.066
87 | E3 ubiquitin-protein ligase NEDD4-like S230D, Q96PU5 | -0.023 ± 0.095
88 | E3 ubiquitin-protein ligase NEDD4-like S230E, Q96PU5 | -0.034 ± 0.066
89 | E3 ubiquitin-protein ligase NEDD4-like S230F, Q96PU5 | -0.139 ± 0.11
90 | E3 ubiquitin-protein ligase NEDD4-like S230G, Q96PU5 | -0.081 ± 0.054
91 | E3 ubiquitin-protein ligase NEDD4-like S230H, Q96PU5 | -0.002 ± 0.09
92 | E3 ubiquitin-protein ligase NEDD4-like S230I, Q96PU5 | -0.274 ± 0.13
93 | E3 ubiquitin-protein ligase NEDD4-like S230K, Q96PU5 | -0.186 ± 0.092
94 | E3 ubiquitin-protein ligase NEDD4-like S230L, Q96PU5 | -0.29 ± 0.071
95 | E3 ubiquitin-protein ligase NEDD4-like S230N, Q96PU5 | 0.108 ± 0.071
